experiment: yeast display, Sf9 membrane polyspecificity reagent, FACS + sequencing; frameworks hold sequencing errors
Summary of the method: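 Using colony PCR, genes from sorted yeast display clones were amplified, then sequenced on MiSeq at 2 × 250 and filtered by CDR length. The clones had been stained with 10% biotinylated, detergent-solubilized Sf9 membrane reagent for 1 hour at 4 °C and sorted by FACS into low and high (top ~1%) gates on anti-HA and streptavidin fluorescence. Polyreactivity labels come from the gate of origin.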

Sequence | polyreactivity (PSR sort gate)
QVQLVESGGGLVQAGGSLRLSCAASGFIFGTYAMGWYRQAPGKERELVAAISQSGGRTYYADSVKGRFTISRDNAKNTVYLQMISLKPEDTAVYYCAARHRPTGISTGYDYWGQGTQVTVSS | high polyreactivity
QVQLVESGGGLVQAGGSLRLSCAASGFIFGTYAMGWYRQAPGKERELVAAISVGGGSTYYADSVKGRFTISRDTAKNTVYLQMNSLKPEDTAVYYCAAVQLYQKHQITYVAHEYWGQGTQVTVSS | low polyreactivity
QVQLVESGGGLVQAGGSLRLSCAASGFIFGTYVMGWYRQAPGKERELVAAISESGGRTYYADSVKGRFTISRDNAKNTVYLQMNSLKPEDTADYYCAKLRHIRFHYYYGYQSYYYWVQGTQVTVSS | high polyreactivity
QVQLVESGGGLVQAGGSLRLSCAASGFIFGVNAMGWYRQARGKERELVAAISTSGGSTYYADSVKGRFTISRDNAKNTVYLQMNSLKPEDTAVYYCAALLHRWAYGTYGYVYWGQGSQVTVSS | high polyreactivity
QVQLVESGGGLVQAGGSLRLSCAASGFIFGVYAMGWYRKATGKERELVAAITTRAGTNYADSVKGRFTISRDNAKNTVYLQMNSLKPEDPAVYYCNAVGWYLLPYDYWGQGTQVTVSS | low polyreactivity
QVQLVESGGGLVQAGGSLRLSCAASGFIFGWNAMGWYRQAPGKEREFVAAITSSGTSTYYADSVKGRFTISRDNAKNTVYLQMNSLKPEDTAVYYCATEGWPFYPARDYDYWGQGTQVTVSS | low polyreactivity
QVQLVESGGGLVQAGGSLRLSCAASGFIFGYNAMGWDRQAPGKERELVAAITRSGGRTYYADSVKGRFTISRDNAKNTVSLQMNSLKPEDTAVYYCAASRFATYPRWYDYWGQGTQVTVSS | low polyreactivity
QVQLVESGGGLVQAGGSLRLSCAASGFIFGYNAMGWYRQAPGKERELVAAISTRGGSTYYADSVKGRFTISRDNAKNTVYLQMNSLKPEDTAVYYCNKVTRVPFDSWGQCTQVTVSS | high polyreactivity
QVQLVESGGGLVQAGGSLRLSCAASGFIFGYNAMGWYRQSPGKERELVAAISTRGGSTYYADSVKGRFTISRDNAKNTVYLQMNSLKPEDTAVYYCNKVTRVPFDSWGQGTQVTVSS | high polyreactivity
QVQLVESGGGLVQAGGSLRLSCAASGFIFGYNDMGWYRQAPGKERELVAAINSGGSTYYADSVKGRFTISRDNAKNTVYLQMNSLKPEDTAVYYCAADYGYFEYDYWGQGTQVTVSS | low polyreactivity
QVQLVESGGGLVQAGGSLRLSCAASGFIFGYNVMGWYIQAPGKERELVASISTGGRTYYADSVKGRFTISRDNAKNTVYLQMYSLKPEDTAVYYCAARYRSYSYLYYSWGQGTQVTVSS | high polyreactivity
QVQLVESGGGLVQAGGSLRLSCAASGFIFGYYAMGGYRQAPGKERELVAAISSSGTRTYYADSVKGRFTISRDNAKNTVYLQMNSLKPEDTAVYYCAVTTAYSGAFYTGEYWGQGTQVTVSS | high polyreactivity
QVQLVESGGGLVQAGGSLRLSCAASGFIFGYYAMGWYRKAPGKERELVAAITSGDGSTYADSVKGRFTISRDNEKNTVYLQMNSLKPEDTAVYYCAAVFRYYTYSGAVRYYYWGQGTQVTVSS | high polyreactivity
QVQLVESGGGLVQAGGSLRLSCAASGFIFGYYAMGWYRQAPGKERDLVAAITSGTGTNYADSVKGRFTISRDNAKISVYLQMIRLKPEDTAVYYCAAYYTWLSEFGYWGQGTQVTVSS | low polyreactivity
QVQLVESGGGLVQAGGSLRLSCAASGFIFGYYAMGWYRQAPGKERELVAAISWSGVSTYYADSVKARFTISRDNAKNTVSLQMNSLKREDTAVYYCAFGYVLTGVFQARFDYWGQGTQVTVSS | high polyreactivity
QVQLVESGGGLVQAGGSLRLSCAASGFIFHEYAMGWSRQAPGKERELVAAISSGGGSTYYADSVKGRFTISRDNANNTVYLQMNSLKPEDTAVYYCAADATAYSVLTRDYWGQGTQVTVSS | high polyreactivity
QVQLVESGGGLVQAGGSLRLSCAASGFIFHTNTMGWYRQAPGKERELVAAISSGGRTNYADSVKGRFTISRDNAKNTVYLQMNSLKPEDTAVYYCAARVGSGFDSWGQGTQVTVSS | high polyreactivity
QVQLVESGGGLVQAGGSLRLSCAASGFIFHYYAMGWYRQAPGKERELVAAISKTGGSTYYADSVKGRFTISRDNAKNTVYLQMNSLKPEDTAVYYCAVARSAYYRGNHWGQGTQVTVSS | high polyreactivity
QVQLVESGGGLVQAGGSLRLSCAASGFIFIAYTMGWYRQAPGKERELVAAISSRGGRTYYADSVKGRFTISRDNAKNTVYLQMNSLKPEDTAVYYCAASYTYYSFGFGTDVRYGYWGQGTQVTVSS | high polyreactivity
QVQLVESGGGLVQAGGSLRLSCAASGFIFIRYAMGWYRQAPGKERELVAAISASGVRTYYADSVKGRFTISRDNAKNTVYLQMNSLKPEDTAVYDCAVRSAWVYGIGRYYWGQGTQVTVSS | high polyreactivity
QVQLVESGGGLVQAGGSLRLSCAASGFIFIYNAMGWYRQAPGKERELVASITSGGGSTYYADSVKGRFTISRDNAKNTVYLQMNSLKPEDTAVYYCAKQDAVQGAEASGEYDYWGQGTQVTVSS | low polyreactivity
QVQLVESGGGLVQAGGSLRLSCAASGFIFKFYAMGWYRQAPGKETELVAAISKSGGRTYYADSVKGRFTISRDNAKNSVYLQMNSLKPEDTAVYYCNAPSVGAAFDYWGQGTQVTVSS | high polyreactivity

Sequence | polyreactivity (PSR sort gate)
QVQLVESGGGLVQAGGSLRLSCAASGFIFKHYAMGWYRPAPGKERELVAAITRSGGRTYYADSVKGRFTISRDYAKNTVYLQMNSLKPEDTAVYYCNVDGKKRHYRHYYLSAYDYWGQGTQVTVSS | high polyreactivity
QVQLVESGGGLVQAGGSLRLSCAASGFIFKIYAMGWYRQAPGKERELVAAISSGDNTNYADSVKGRFTISRDNAKNTVYLQMNSLKPEDNAVYYCAALRYTYLGQLQWSRSGRYDYWGQGTQVTVSS | high polyreactivity
QVQLVESGGGLVQAGGSLRLSCAASGFIFKLYAMGWYRQAPGKERELVAAIRSSGGSTYYADSVKGRFTISRDNAKNTVYLQMNSLKPEDTAVYYCAKVGGRVRYNYWGQGTQVTVSS | high polyreactivity
QVQLVESGGGLVQAGGSLRLSCAASGFIFKRYAMGWYRQAPGKERELVATISNSGGRTYYADSVKGRFTISRDNAKNTVYLQINSLKPEDTAVYYCDALPFWWGGYWGQGTQVTVSS | high polyreactivity
QVQLVESGGGLVQAGGSLRLSCAASGFIFKRYAMGWYRQAPGKERELVAVITRSGGSTYYADSVKGRFTISRDNAKNTVYLQMNSLKPEDTAVYYCAVDFTDRGYDYWGQGTQVTVSS | high polyreactivity
QVQLVESGGGLVQAGGSLRLSCAASGFIFKSYAMGWYRQAPGKETELVAAISRSGSSTYYADSVKGRFTISRDNAKNTVYLQMNSLKPEDTAVYYCAKKGYRFIHFGYDYWGQGTQVTVSS | high polyreactivity
QVQLVESGGGLVQAGGSLRLSCAASGFIFKYYAMGWYRQAPGKERELVAAISRRGGSTFYADSVKGRFTISRDNAKNTVYLQMNSLKPEDTAVYYCAAYYYYSAYGDDYWGQGTQVTVSS | high polyreactivity
QVQLVESGGGLVQAGGSLRLSCAASGFIFLFYAMGWYRQAPGKERELVAAISSGVSTNYADSVKGRFTISRDNAKNTVYLQMNSLKPEDTAVYYCNTTQSTSLLYDYWGQGTQVTVSS | low polyreactivity
QVQLVESGGGLVQAGGSLRLSCAASGFIFLIYAIGWYRQAPGTERELVATIRYSGGRTYYADSVKGRFTISRDNAKNTVYLQMNSLKPEDTAVYYCAARSVWFSGQGRMNYWGQGTQVTGSS | high polyreactivity
QVQLVESGGGLVQAGGSLRLSCAASGFIFLPNDMGWYRQAPGKEREFVAAIDWSGGSTYYADSVKGRFTISRDNAKNTVYLQMNSLKPEDTAVYYCNAEGRRVGFRIDYDYWGQGTQVTVSS | low polyreactivity
QVQLVESGGGLVQAGGSLRLSCAASGFIFLPYAMGWYRQEPGKERELVAAITRGGRTYYADSVKGRFTISRDNAKNTVSLQMNSLKPEVTAVSYFAATPYLFWGYNYWGQGTQVTVSS | low polyreactivity
QVQLVESGGGLVQAGGSLRLSCAASGFIFLSNAMGWYRQAPGKERELVAAITSGGSTNYADSVKGRFTISRDNAKNTVYLQMNSLKPEDTAVYYCAARAPQWTFALGRWDRDYWGQGTQVTVSS | low polyreactivity
QVQLVESGGGLVQAGGSLRLSCAASGFIFLSNGMVWYRQAPGKERELVAAISSSGGSTYYADSVKGRFTISRDTAKNTVYLQMNSLKPEDTAVYYCAKDNGPWFAYDYWGQGSQVTVSS | low polyreactivity
QVQLVESGGGLVQAGGSLRLSCAASGFIFLYNAMGWYRPAPGKERQLVAAITSSGATTYYADSVKGRFTISRDNAKNTDYLQMNSLKPEDTAVYYCAARYTGRNGGSTTPEYDYWGQGTQVTVSS | low polyreactivity
QVQLVESGGGLVQAGGSLRLSCAASGFIFLYNTMGWYRQAPGKERELVAAISGGGGSTSYADSVKGRFTISRDNAKNTVYLQMNSLKPEDTAVYYCAKKSTYYKWSRMYWGQGTQVTVSS | high polyreactivity
QVQLVESGGGLVQAGGSLRLSCAASGFIFLYYAMGWYRPAPGKEGELVAAISRSGGRTYYADSVKGRFTISRDNAKNTVYLQMNSLKPEDTAGYYCAARSARTSSFPIFYYWGQGTQVTVSS | high polyreactivity
QVQLVESGGGLVQAGGSLRLSCAASGFIFLYYAMGWYRQAPGKERELVADISRGADTKYADSVKGRFTISRDNAKNTVYLQMNSLKPEDTAVYYCATDITTFWVPYPGVELGYWGQGTQVTVSS | low polyreactivity
QVQLVESGGGLVQAGGSLRLSCAASGFIFNHYAMGWYRQAPGKEREFVAAISWSGGSTYYADSVKGRFTISRDNAKNTVYLQMNSLKPEDTAVYYCAASYNGLWHGDYDYWGQGTQVTVSS | low polyreactivity
QVQLVESGGGLVQAGGSLRLSCAASGFIFNKYAMGWYRPAPGKERELVARITSSGSRTYYADSVKGRFTISRDKAKNTVYLQMISLKPEDTAVYYCNTYYHWLTMDYWGQGTQVTVSS | high polyreactivity
QVQLVESGGGLVQAGGSLRLSCAASGFIFNVNAMGWYRQAPGKEREFVAVSTYADSVKGRFTISRDNAKNTVYLQMNSLKPEDTAVYYCAATFVQPVYDYDYWGQGTQVTVSS | low polyreactivity
QVQLVESGGGLVQAGGSLRLSCAASGFIFNWYAMGWYRQAPGKERELVAVITSSGGSTYYADSVKGRFTISRDNAKNTVYLQMNSLKPDDTAVYYCNKKPGPAPNKYRITARYYYWGQGTQVTVSS | high polyreactivity
